Data on one substance can be found in PMC6471214.

The target of experiment [1] is Biotinylated tubulin (UniProt P02550). The experiment can be described thus: LSPR (extinction maximum wavelength of gold nanoparticles) + fluorescence microscopy; long MT sample: as the short MT sample, then 10 volumes of 4 µM tubulin (4% Rhodamine-labeled) with 0.5 mM GMPCPP added, 20 more min at 37 °C before paclitaxel.
For experiment [2] the target is unchanged. In words: LSPR (extinction maximum wavelength of gold nanoparticles) + fluorescence microscopy; short MT sample: biotinylated tubulin (7% of the tubulin mix, with 4% Rhodamine-labeled tubulin) held on 80 nm biotin-PEG AuNPs through neutravidin; BRB80 pH 6.8, 0.025% Tween 20; GMPCPP, 37 °C for 30 min; stabilised with 10 µM paclitaxel; spectra at room temperature.

Regarding “Porcine tubulin (α/β-tubulin heterodimer subunits) (from UniProt P02550 1-451; P02554 1-445) (complex)”, the λmax (LSPR extinction maximum wavelength) with Biotinylated tubulin [1] and with Biotinylated tubulin [2] was 553 nm throughout.
